Consider 2 molecules from PMC3626232 (The Journal of biological chemistry, 2000).

One may read the stoichiometry N as a count of units in the complex or per binding partner.

One series addresses XMcm(2+4+6+7) tetramer (Xenopus (endogenous in Xenopus egg …, UniProt P55861 1-886; P30664 1-863; Q5FWY4 1-821; Q91876 1-720). Kind of series: SEC.
The series “SEC” concerns the molecule itself. Kind of series: SEC. On the technique in general: Size exclusion chromatography separates by hydrodynamic size, large species first.

Chain of XMcm(2+4+6+7) tetramer (Xenopus (P30664 whole entry, chain 2 of 2): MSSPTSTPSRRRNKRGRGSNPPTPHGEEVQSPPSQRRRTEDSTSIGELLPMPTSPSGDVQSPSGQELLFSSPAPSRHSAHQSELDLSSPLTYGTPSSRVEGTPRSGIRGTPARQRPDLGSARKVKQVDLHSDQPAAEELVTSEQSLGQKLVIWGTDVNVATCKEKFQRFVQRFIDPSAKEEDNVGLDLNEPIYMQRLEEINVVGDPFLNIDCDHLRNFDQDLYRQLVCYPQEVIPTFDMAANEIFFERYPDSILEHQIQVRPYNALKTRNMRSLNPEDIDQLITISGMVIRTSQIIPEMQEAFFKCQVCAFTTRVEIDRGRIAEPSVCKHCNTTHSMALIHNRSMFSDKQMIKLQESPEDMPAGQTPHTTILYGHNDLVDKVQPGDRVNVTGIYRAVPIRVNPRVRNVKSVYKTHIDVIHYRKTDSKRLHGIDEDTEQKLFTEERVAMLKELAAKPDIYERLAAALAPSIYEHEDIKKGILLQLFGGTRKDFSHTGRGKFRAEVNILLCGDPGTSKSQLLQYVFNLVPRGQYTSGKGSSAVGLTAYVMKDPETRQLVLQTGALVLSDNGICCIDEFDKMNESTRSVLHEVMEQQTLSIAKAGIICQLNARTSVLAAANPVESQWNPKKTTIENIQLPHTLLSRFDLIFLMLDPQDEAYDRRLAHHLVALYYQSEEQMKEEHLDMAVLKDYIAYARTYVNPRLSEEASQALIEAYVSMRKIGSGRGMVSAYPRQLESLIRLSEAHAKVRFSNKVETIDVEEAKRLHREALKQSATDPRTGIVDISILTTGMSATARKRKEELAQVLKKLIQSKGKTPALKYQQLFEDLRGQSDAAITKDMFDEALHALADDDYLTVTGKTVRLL
Chain of XMcm(2+4+6+7) tetramer (Xenopus (Q5FWY4 whole entry, chain 3 of 2): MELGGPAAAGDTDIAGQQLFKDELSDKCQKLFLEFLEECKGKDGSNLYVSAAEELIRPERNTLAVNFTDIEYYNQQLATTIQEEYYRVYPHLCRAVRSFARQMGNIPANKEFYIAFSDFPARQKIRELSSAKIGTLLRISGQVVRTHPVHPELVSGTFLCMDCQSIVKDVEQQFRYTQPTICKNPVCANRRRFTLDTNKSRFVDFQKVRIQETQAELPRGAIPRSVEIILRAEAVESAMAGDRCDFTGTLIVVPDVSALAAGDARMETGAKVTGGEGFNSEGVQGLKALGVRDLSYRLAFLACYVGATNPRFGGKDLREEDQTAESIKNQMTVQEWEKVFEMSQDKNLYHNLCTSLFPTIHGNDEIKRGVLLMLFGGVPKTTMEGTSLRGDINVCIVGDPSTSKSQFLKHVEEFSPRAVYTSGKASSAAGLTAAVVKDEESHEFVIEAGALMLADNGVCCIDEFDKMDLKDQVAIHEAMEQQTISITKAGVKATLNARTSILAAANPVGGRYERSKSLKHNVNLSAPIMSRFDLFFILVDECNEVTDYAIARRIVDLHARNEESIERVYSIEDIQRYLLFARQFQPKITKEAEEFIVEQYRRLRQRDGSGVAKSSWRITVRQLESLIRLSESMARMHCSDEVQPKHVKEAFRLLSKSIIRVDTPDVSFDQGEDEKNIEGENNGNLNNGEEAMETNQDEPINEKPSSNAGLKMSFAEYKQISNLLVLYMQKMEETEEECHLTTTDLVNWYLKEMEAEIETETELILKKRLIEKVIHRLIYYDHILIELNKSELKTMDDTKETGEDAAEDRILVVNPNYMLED

B1: XMcm(3+7) hetero-dimer (complex)
chain 1: MDYGGGFEDHELREAQREYLDFLDDDQDQGLYHGKVRDMIGSNEHRLIVNLNDVRRKNDKRANLMLNDAFAETIAFQRALKDLVASIDATYAKQFEEFSVGFEGSFGSKHVSPRTLTASLLGSLVCVEGIVTKCSLVRPKVMRSVHYCPATKKTLERKYSDLTSLEAFPSSSIYPTKDEENNPLETEYGLSTYKDHQTLSIQEMPEKAPAGQLPRSVDIIADDDLVDKCKPGDRVQIVGIYRCLPSKQGGFTSGTFRTILLANNIKLMSKEIAPTFSADDVAKIKKFCKAHSKDIFEHLSKSLAPSIHGHEYIKKAILCMLLGGNEKVLENGTRIRGDINVLLIGDPSVAKSQLLRYVLHTAPRAIPTTGRGSSGVGLTAAVTTDQETGERRLEAGAMVLADRGVVCIDEFDKMSDMDRTAIHEVMEQGRVTIAKAGIQARLNARCSVLAAANPVYGRYDQYRTPMENIGLQDSLLSRFDLLFIVLDKMDADNDQEIADHVLRMHRYRTPGEQDGYALPLGCSVEIFATDDPNASDVTDQELQIYEKHDNLLHGPRKNKSKIVSMQFIRKYIHVAKLIKPVLTSEAADYISQEYAKIRNHDQINNDSARTMPVTARALETMIRLSTAHAKVRMSKTIERQDAETALELVQFAYFKKVLAKEKKKTDKDLHDENLSQDTLSQESVRKSSRRAGKIADSQDDSMDPYSFSEQDSSLNENLSQSLRPQRKKAESQDGKRSLSQNRTKEFKAALLKAFKSSRSQSVAVSQLLELINKGNPEPFERSEVKEALDNMQNDNQVMVSEDVVFLI
chain 2: MPRDYQTEKEKCKTFLQEFYKDDEIGKKHFKYGVQLANIAHREQVALYIDLDDLAEEDPELVDAICENTRRYTNLFADAVQELLPQYKEREVVHKDALDVYIEHRLMMEQRGRDPNEMRDSQNQYPPELMRRFELYFKAPSSSKARVVRDVKADSIGKLVNIRGIVTRVTEVKPMMVVATYTCDQCGAETYQPIQSPTFMPLIMCPSRECQTNRSGGRLYLQTRGSKFIKFQELKIQEHSDQVPVGNIPRCMSVYVRGENTRLAQPGDHVGITGVFLPMLRTGFRQVVQGLLSETYLECHRLVKMNKSEDDELGTEELSEEELRQITEEDFYEKLAASIAPEIYGHEDVKKALLLLLVGGVDNSPRGMKIRGNINICLMGDPGVAKSQLLSYIDRLAPRSQYTTGRGSSGVGLTAAVMKDPVTGEMTLEGGALVLADQGVCCIDEFDKMMDTDRTAIHEVMEQQTISIAKAGIMTTLNARCSILAAANPAYGRYNPKKTVEQNIQLPAALLSRFDVLWLIQDKPDRDNDLRLAQHITYVHQHSKQPPSQFQPLDMKLMRRYITMCKRKQPAIPEALADYLTAAYVEMRKEARTNKDMTFTSARTLLSVLRLSTALARLRLEDVVEKEDVNEAMRLMEMSKDSLLGDKGHTSRTQRPADVIFSTIREMVPEKGARSVKYSEAEQRCVSKGFTPAQFEAALEEYEELNVWLVNQARTKITFV
B1: the binding result with XMcm(2+4+6+7) tetramer is “binds”.

B2: XMcm2 (natural protein, UniProt P55861 1-886, looked up)
chain: MADSSESFNIATSPRAGSRRDALTSSPGRDLPPFEDESEGMFGDGVVPEEEEDGEELIGDAMERDYRPISELDRYEVEGLDDEEDVEDLTASQREAAEQSMRMRDREMGRELGRMRRGLLYDSDEEEEDRPARKRRMAERAAEGAPEEDEEMIESIENLEDMKGHTVREWVSMAATRLEIYHRFKNFLRTHVDEHGHNVFKEKISDMCKENKESLPVNYEDLAAREHVLAYFLPEAPAEMLKIFDEAAKEVVLVMYPKYDRIAREIHVRISHLPLVEELRSLRQLHLNQLIRTSGVVTCCTGVLPQLSMVKYNCNKCNFILGPFFQSQNQEVRPGSCPECQSFGPFEINMEETVYQNYQRITIQESPGKVAAGRLPRSKDAILLADLVDSCKPGDEIELTGIYHNNYDGSLNTANGFPVFATVILANHITKKDDKVAVGELTDEDVKAIVALSKDERIGERIFASIAPSIYGHEDIKRGLALALFGGEAKNPGGKHKVRGDINVLLCGDPGTAKSQFLKYVEKVASRAVFTTGQGASAVGLTAYVQRHPVTKEWTLEAGALVLADRGVCLIDEFDKMNDQDRTSIHEAMEQQSISISKAGIVTSLQARCTVIAASNPIGGRYDPSLTFSENVDLTEPIVSRFDILCVVRDTVDPVQDEMLARFVVSSHIKHHPSSKDIANGDAAEFALPNTFGVEALPQEVLKKYIMYAKEKIRPKLNQMDQDKVAKMYSDLRKESMATGSIPITVRHIESMIRMAEAHARMHLRDYVVEDDVNMAIRVMLESFIDTQKFSVMRSMRKTFARYLAFRRDNNELLLFVLKQLIAEQVTYQRNRYGAQQDTIEVPEKDLVDKARQINIHNLSAFYDSDLFKMNKFTHDVKKKLIIQQF
Consider B2, for which the “stoichiometry N” value in “SEC” came to 2.
